The data set deals with the molecule itself. The experiment in a line: cryo-EM structure.

The text below walks through data of PMC8189185 (Structure (London, England : 1993), 2017).

B1: PilA, major pilin subunit of the Pseudomonas aeruginosa strain K (PaK) Type IV pilus (natural protein)
chain: FTLIELMIVVAIIGILAAIAIPQYQNYVARSEGASALASVNPLKTTVEEALSRGWSVKSGTGTEDATKKEVPLGVAADANKLGTIALKPDPADGTADITLTFTMGGAGPKNKGKIITLTRTAADGLWKCTSDQDEQFIPKGCSR
For B1, the binding result is listed as “binds”.
